Consider 9 molecules from US5723307A, “Fluorogenic substrates for assay of angiotensin converting enzyme” (Development Center for Biotechnology, priority 1995, dated 1998).

A short description of data set [1]: solubility in aqueous buffer. Type of data set: physicochemical.
A further data set concerns ACE. The settings on record: from literature, cited from earlier work; for Km: Ref. [16]-[20].
Substrate in data set [2]: NCCCC[C@H](NC(=O)[C@H](Cc1c[nH]c2ccccc12)NC(=O)[C@H](Cc1ccccc1)NC(=O)CCC(=O)NCCNc1cccc2c(S(=O)(=O)O)cccc12)C(=O)O
The data set can be described thus: continuous spectrofluorometric assay of hydrolysis of fluorogenic substrates by ACE (kinetic parameters). Type of data set: biochemical, rabbit. The settings on record: other: 0.05M Hepes buffer pH 8.2, 0.2M NaCl, 1M Na2SO4, Lineweaver-Burk, ex 286 nm, em 360 nm, 37.0 °C. The method, then:
(§1) Fluorescence data were recorded on a HITACHI Model F2000 fluorescence spectrophotometer (Tokyo, Japan) set at wavelengths of 286 nm (excitation)and 360 nm (emission). The rates of enzymatic hydrolysis of the fluorogenic compounds ES-FWF, ES-FWG, ES-FWH, ES-FWK, ES-FWL and ES-FHW were monitored fluorospectrophotometrically as follows: A solution of ACE was prepared at 1.3×10^-2 units/ml (concentration of enzyme was estimated by using the Bio-Rad protein assay kit with bovine serum albumin as a standard). […] Activity was assayed with hippuryl-L-histidyl-L-leucine as a substrate. One unit of enzyme activity is the amount required to catalyze the formation of 1.0 μmol of hippuric acid per minute (in 50 mM Hepes, pH 8.3, and 0.3M NaCl at 37° C.). For fluorescence measurement, 20 μl of enzyme solution was added to 0.5 ml substrate solution (2×10^-6 -6.5×10^-5 M) in 0.05M Hepes buffer, pH 8.2, containing 0.2M NaCl and 1M Na2 SO4, placed in an optical cell. […] The increase in fluorescence (emission at 360 nm, excitation at 286 nm) with time, in the presence of the enzyme, was recorded continuously. Since the product (and perhaps the substrate as well) is subject to photodecomposition, the slit width of the excitation monochromator must not be too large. Alternatively, the reaction can be monitored automatically by pulse illumination with a time interval of 150, sec, as shown in FIG. 1.
(§2) Dependence of the rate of hydrolysis on substrate concentration was established by initial rate measurements (within the first 10% of hydrolysis). The slope of the line was translated into molar concentrations of the released dipeptides using a calibration curve constructed by fluorescence measurements of solutions containing authentic dipeptide under identical conditions. Km values were calculated by the method of Lineweaver-Burk plots. Five points with approximately equidistance on the 1/[S] abscissa were obtained from the average of two independent measurements. Kinetic parameters for other substrates were also obtained by similar procedures.
(§3) Kinetic parameters of ES-FWF, ES-FWG, ES-FWH, ES-FWK, ES-FWL and ES-FHW for ACE were obtained by continuous spectrofluorometric assay, and the results are listed in Table I. In order to compare the characteristics of the ES-peptides with those of previously reported fluorogenic substrates, the kinetic parameters from literatures were collected for comparison.

Substrate in data set [3]: O=C(O)CNC(=O)[C@H](Cc1c[nH]c2ccccc12)NC(=O)[C@H](Cc1ccccc1)NC(=O)CCC(=O)NCCNc1cccc2c(S(=O)(=O)O)cccc12
Described as above. Type of data set: biochemical, rabbit. The settings on record: other: 0.05M Hepes buffer pH 8.2, 0.2M NaCl, 1M Na2SO4, Lineweaver-Burk, ex 286 nm, em 360 nm, 37.0 °C. The method, then: as §1, §2, §3

Substrate in data set [4]: CC(C)C[C@H](NC(=O)[C@H](Cc1c[nH]c2ccccc12)NC(=O)[C@H](Cc1ccccc1)NC(=O)CCC(=O)NCCNc1cccc2c(S(=O)(=O)O)cccc12)C(=O)O
The description is as above. Type of data set: biochemical, rabbit. Particulars: other: 0.05M Hepes buffer pH 8.2, 0.2M NaCl, 1M Na2SO4, Lineweaver-Burk, ex 286 nm, em 360 nm, 37.0 °C. The protocol:
as §1, §2, §3

Substrate in data set [5]: O=C(CCC(=O)N[C@@H](Cc1ccccc1)C(=O)N[C@@H](Cc1c[nH]c2ccccc12)C(=O)N[C@@H](Cc1c[nH]cn1)C(=O)O)NCCNc1cccc2c(S(=O)(=O)O)cccc12
Described as above. The settings on record: other: 0.05M Hepes buffer pH 8.2, 0.2M NaCl, 1M Na2SO4, Lineweaver-Burk, ex 286 nm, em 360 nm, 37.0 °C. Type of data set: biochemical, rabbit. The method, then:
as §1, §2, §3

Substrate in data set [6]: O=C(CCC(=O)N[C@@H](Cc1ccccc1)C(=O)N[C@@H](Cc1c[nH]c2ccccc12)C(=O)N[C@@H](Cc1ccccc1)C(=O)O)NCCNc1cccc2c(S(=O)(=O)O)cccc12
Described as above. It is filed as biochemical, rabbit. The settings on record: other: 0.05M Hepes buffer pH 8.2, 0.2M NaCl, 1M Na2SO4, Lineweaver-Burk, ex 286 nm, em 360 nm, 37.0 °C. The method, then:
as §1, §2, §3

Substrate in data set [7]: O=C(CCC(=O)N[C@@H](Cc1ccccc1)C(=O)N[C@@H](Cc1c[nH]cn1)C(=O)N[C@@H](Cc1c[nH]c2ccccc12)C(=O)O)NCCNc1cccc2c(S(=O)(=O)O)cccc12
Described as above. The settings on record: other: 0.05M Hepes buffer pH 8.2, 0.2M NaCl, 1M Na2SO4, Lineweaver-Burk, ex 286 nm, em 360 nm, 37.0 °C. Type of data set: biochemical, rabbit. The method, then: as §1, §2, §3

Starred links: 1 amine or outer side, 2 acyl side, 3 side chain; linkers in the order of their positions; H or OH if unused. Non-standard residues stand in square brackets, D forms with d. Residues, ends and D or L forms follow the SMILES beside them. *: point of attachment. Phe(4-NO2) = N[C@@H](Cc1ccc([N+](=O)[O-])cc1)C(=O)O; EDANS = O=S(=O)(O)c1cccc2c(NCCN*)cccc12; Suc = O=C(CCC(=O)[*:2])[*:1]; 2Abz = Nc1ccccc1C(=O)O

Usually solubility stands for the dissolved amount per volume that the medium holds. In the case of `O=C(CCC(=O)N[C@@H](Cc1ccccc1)C(=O)N[C@@H](Cc1c[nH]cn1)C(=O)N[C@@H](Cc1c[nH]c2ccccc12)C(=O)O)NCCNc1cccc2c(S(=O)(=O)O)cccc12` [ES-FHW] ({EDANS-Suc}-Phe-His-Trp-OH), in data set [1], the solubility lay within 7000 to 40000 µg/mL.
In turn, `NCCCC[C@H](NC(=O)[C@H](Cc1c[nH]c2ccccc12)NC(=O)[C@H](Cc1ccccc1)NC(=O)CCC(=O)NCCNc1cccc2c(S(=O)(=O)O)cccc12)C(=O)O` [ES-FWK] ({EDANS-Suc}-Phe-Trp-Lys-OH) displayed a solubility in data set [1] of 7000 to 40000 µg/mL.
Consider `O=C(CCC(=O)N[C@@H](Cc1ccccc1)C(=O)N[C@@H](Cc1c[nH]c2ccccc12)C(=O)N[C@@H](Cc1ccccc1)C(=O)O)NCCNc1cccc2c(S(=O)(=O)O)cccc12` [ES-FWF] ({EDANS-Suc}-Phe-Trp-Phe-OH), for which the solubility in data set [1] lay in the range of 7000 to 40000 µg/mL.
Same read-out and setting: the figure for `O=C(O)CNC(=O)[C@H](Cc1c[nH]c2ccccc12)NC(=O)[C@H](Cc1ccccc1)NC(=O)CCC(=O)NCCNc1cccc2c(S(=O)(=O)O)cccc12` [ES-FWG] ({EDANS-Suc}-Phe-Trp-Gly-OH) is 7000 to 40000 µg/mL; for `O=C(CCC(=O)N[C@@H](Cc1ccccc1)C(=O)N[C@@H](Cc1c[nH]c2ccccc12)C(=O)N[C@@H](Cc1c[nH]cn1)C(=O)O)NCCNc1cccc2c(S(=O)(=O)O)cccc12` [ES-FWH] ({EDANS-Suc}-Phe-Trp-His-OH) it is 7000 to 40000 µg/mL; for `CC(C)C[C@H](NC(=O)[C@H](Cc1c[nH]c2ccccc12)NC(=O)[C@H](Cc1ccccc1)NC(=O)CCC(=O)NCCNc1cccc2c(S(=O)(=O)O)cccc12)C(=O)O` [ES-FWL] ({EDANS-Suc}-Phe-Trp-Leu-OH) it is 7000 to 40000 µg/mL.
Usually Km stands for the substrate concentration at which the rate is half of its maximum. A word on the kcat: it is the number of substrate molecules converted per active site and unit of time at saturation. As to `Nc1ccccc1C(=O)NCC(=O)N[C@@H](Cc1ccc([N+](=O)[O-])cc1)C(=O)N1CCC[C@H]1C(=O)O` [Abz-GF(NO2)P, o-aminobenzoyl-glycyl-p-nitro-L-phenylalanyl-L-proline] (H-[2Abz]G[Phe(4-NO2)]P-OH), the Michaelis-Menten constant (Km) in the data set on ACE was 190 µM. Also, in the data set on ACE (Ref. [17]-[20]), the kcat was 1.5 s⁻¹ and the kcat/Km is recorded as 7.7 × 10^3 M^-1 S^-1.
Consider `O=C(O)CNC(=O)[C@H](Cc1c[nH]c2ccccc12)NC(=O)CNC(=O)OCc1ccc([N+](=O)[O-])cc1` [Z(NO2)-GWG, p-nitrobenzyloxycarbonylglycyl-L-tryptophyl-glycine], for which the Km with ACE was 900 µM.

B1: ACE (from rabbit lung, Sigma Chemical Co.) (Oryctolagus cuniculus) (protein)
chain: TLDPGLLPGDFAADEAGARLFASSYNSSAEQVLFRSTAASWAHDTNITAENARRQEEEALLSQEFAEAWGKKAKELYDPVWQNFTDPELRRIIGAVRTLGPANLPLAKRQQYNSLLSNMSQIYSTGKVCFPNKTASCWSLDPDLNNILASSRSYAMLLFAWEGWHNAVGIPLKPLYQEFTALSNEAYRQDGFSDTGAYWRSWYDSPTFEEDLERIYHQLEPLYLNLHAYVRRVLHRRYGDRYINLRGPIPAHLLGNMWAQSWESIYDMVVPFPDKPNLDVTSTMVQKGWNATHMFRVAEEFFTSLGLLPMPPEFWAESMLEKPEDGREVVCHASAWDFYNRKDFRIKQCTQVTMDQLSTVHHEMGHVQYYLQYKDQPVSLRRANPGFHEAIGDVLALSVSTPAHLHKIGLLDHVTNDTESDINYLLKMALEKIAFLPFGYLVDQWRWGVFSGRTPSSRYNFDWWYLRTKYQGICPPVVRNETHFDAGAKFHIPSVTPYIRYFVSFVLQFQFHQALCMEAGHQGPLHQCDIYQSTRAGAKLRAVLQAGCSRPWQEVLKDMVASDALDAQPLLDYFQPVTQWLQEQNERNGEVLGWPEYQWRPPLPNNYPEGIDLVTDEAEASRFVEEYDRSFQAVWNEYAEANWNYNTNITTEASKILLQKNMQIANHTLTYGNWARRFDVSNFQNATSKRIIKKVQDLQRAVLPVKELEEYNQILLDMETIYSVANVCRVDGSCLQLEPDLTNLMATSRKYDELLWVWTSWRDKVGRAILPYFPKYVEFTNKAARLNGYVDAGDSWRSMYETPTLEQDLERLFQELQPLYLNLHAYVGRALHRHYGAQHINLEGPIPAHLLGNMWAQTWSNIYDLVAPFPSASTMDATEAMIKQGWTPRRMFEEADKFFISLGLLPVPPEFWNKSMLEKPTDGREVVCHASAWDFYNGKDFRIKQCTTVNMEDLVVVHHEMGHIQYFMQYKDLPVALREGANPGFHEAIGDVLALSVSTPKHLHSINLLSSEGGGYEHDINFLMKMALDKIAFIPFSYLVDEWRWRVFDGSITKENYNQEWWSLRLKYQGLCPPAPRSQGDFDPGAKFHIPSSVPYIRYFVSFIIQFQFHEALCKAAGHTGPLHTCDIYQSKEAGKRLADAMKLGYSKPWPEAMKVITGQPNMSASAMMNYFKPLMDWLLTENGRHGEKLGWPQYTWTPNSARSEGSLPDSGRVNFLGMNLDAQQARVGQWVLLFLGVALLLASLGLTQRLFSIRYQSLRQPHHGPQFGSEVELRHS
notes: ACE (from rabbit lung, Sigma Chemical Co.); purchased Sigma Chemical Co; host or cells: rabbit lung (tissue)
Turning to B1, the Michaelis constant (Km) in data set [2] is 24 µM; in data set [3], 23 µM; in data set [4] it was 2.7 µM; in data set [5], 4.9 µM; in data set [6], 4.5 µM; in data set [7], 15 µM. Further, the kcat in data set [2] turned out to be 3.8 s⁻¹; in data set [3], 2.0 s⁻¹; in data set [4], 0.9 s⁻¹; in data set [5], 0.8 s⁻¹; in data set [6], 2.1 s⁻¹; in data set [7], 2.0 s⁻¹. The kcat/Km in data set [2] is reported as 1.6 × 10^5 M^-1 S^-1; in data set [3] it was 8.9 × 10^4 M^-1 S^-1; in data set [4], 3.2 × 10^5 M^-1 S^-1; in data set [5] it was 1.7 × 10^5 M^-1 S^-1; in data set [6], 4.6 × 10^5 M^-1 S^-1; in data set [7] it was 1.3 × 10^5 M^-1 S^-1.
